B1: CPXM2 (parent)
chain: TASTKNCMVGYDMGATRCDFTLSK

Variants of: B1
Test: protein stability index of a GFP-peptide fusion (GPS, HEK-293T) (PSI 1-6); higher = more stable
Settings: c terminus: a fixed tail appended
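Also: lentivirally expressed fusions sorted by FACS into six bins by GFP to DsRed ratio, PSI derived from sequencing read proportions per bin multiplied by bin number.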

Row | Variant | protein stability index
1 | TASTKNCMVGYDMGALRCDFTLSK | 2.45
2 | TASTKNCMVGYDMGAQRCDFTLSK | 2.86
3 | TASTKNCMVGYDMGAWRCDFTLSK | 2.39
4 | TASTKNCMVGYDMGAARCDFTLSK | 2.7
5 | TASTKNCMVGYDMGADRCDFTLSK | 3.72
6 | TASTKNCMVGYDMGARRCDFTLSK | 3.06
7 | TASTKNCMVGYDMGAHRCDFTLSK | 2.47
8 | TASTKNCMVGYDMGAVRCDFTLSK | 2.66
9 | TASTKNCMVGYDMGAKRCDFTLSK | 2.74
10 | TASTKNCMVGYDMGAPRCDFTLSK | 2.62
11 | TASTKNCMVGYDMGAERCDFTLSK | 2.97
12 | TASTKNCMVGYDMGACRCDFTLSK | 2.26
13 | TASTKNCMVGYDMGANRCDFTLSK | 2.75
14 | TASTKNCMVGYDMGAIRCDFTLSK | 1.6
15 | TASTKNCMVGYDMGAMRCDFTLSK | 2.28
16 | TASTKNCMVGYDMGAGRCDFTLSK | 2.27
17 | TASTKNCMVGYDMGAFRCDFTLSK | 1.75
18 | TASTKNCMVGYDMGAYRCDFTLSK | 2.17
19 | TASTKNCMVGYDMGASRCDFTLSK | 2.81
20 | TASTKNCMVGYDMGATRCDFTLEK | 2.45
21 | TASTKNCMVGYDMGATRCDFTLNK | 2.6
22 | TASTKNCMVGYDMGATRCDFTLWK | 1.86
23 | TASTKNCMVGYDMGATRCDFTLMK | 2
24 | TASTKNCMVGYDMGATRCDFTLLK | 2.67

Row | Variant | protein stability index
25 | TASTKNCMVGYDMGATRCDFTLPK | 2.59
26 | TASTKNCMVGYDMGATRCDFTLVK | 2.3
27 | TASTKNCMVGYDMGATRCDFTLHK | 2.2
28 | TASTKNCMVGYDMGATRCDFTLRK | 3.34
29 | TASTKNCMVGYDMGATRCDFTLCK | 1.46
30 | TASTKNCMVGYDMGATRCDFTLTK | 1.94
31 | TASTKNCMVGYDMGATRCDFTLGK | 2.45
32 | TASTKNCMVGYDMGATRCDFTLKK | 2.78
33 | TASTKNCMVGYDMGATRCDFTLIK | 1.89
34 | TASTKNCMVGYDMGATRCDFTLDK | 2.55
35 | TASTKNCMVGYDMGATRCDFTLYK | 2.01
36 | TASTKNCMVGYDMGATRCDFTLQK | 2.26
37 | TASTKNCMVGYDMGATRCDFTLAK | 3.47
38 | TASTKNCMVGYDMGATRCDFTLFK | 1.55
39 | TASTKNCMVGYDMGWTRCDFTLSK | 2.71
40 | TASTKNCMVGYDMGYTRCDFTLSK | 2.19
41 | TASTKNCMVGYDMGATVCDFTLSK | 3.7
42 | TASTKNCMVGYDMGATKCDFTLSK | 3.28
43 | TASTKNCMVGYDMGATSCDFTLSK | 3.31
44 | TASTKNCMVGYDMGATLCDFTLSK | 3.53
45 | TASTKNCMVGYDMGATQCDFTLSK | 3.67
46 | TASTKNCMVGYDMGATICDFTLSK | 3.2
47 | TASTKNCMVGYDMGATHCDFTLSK | 2.72
